Data: the supplement of paper PMC9170038

System: MS2 coat protein
Assay: apparent KD of MS2 coat protein; designed switch direction (-1 OFF switch, 1 ON switch): -1; higher = weaker reporter binding
How it was run: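 SNAP-549-labelled MS2 coat protein was titrated, doubling from 0.7 or 1.5 nM to 3 µM, over designed RNA switches transcribed on Illumina chips by stalled E. coli RNA polymerase. Runs were done without input, with 200 uM small-molecule ligand, or with an oligonucleotide input. Apparent KD is the per-design median over clusters of curve-fitted normalised fluorescence.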

[1] = Eterna round: R95, input ligand: FMN 200 uM
[2] = Eterna round: R95, input ligand: microRNA oligo, concentration not stated
[3] = Eterna round: R95, input ligand: none
[4] = input ligand: microRNA oligo, concentration not stated

| Sequence | apparent KD of MS2 coat protein [1] | apparent KD of MS2 coat protein [2] | apparent KD of MS2 coat protein [3] | apparent KD of MS2 coat protein (input ligand: FMN 200 uM) | apparent KD of MS2 coat protein [4] | apparent KD of MS2 coat protein (input ligand: none) |
| --- | --- | --- | --- | --- | --- | --- |
| CGCUAGUCAGGAUAUACGAACAUGUCAAAAGACGUGAAGGGACAUGAGGAUCACCCAUGUAGAAGGGACUAGCA [salish99_ex2_r3_014] (puzzle: Exclusion 2) | 0.147 µM | 0.0225 µM | 0.0249 µM | – | – | – |
| GCCUGCUGGCGAGGAUAUCCUGUGCGGUUCCGGCUCGUGUCUGUUACAUGAGGAUCACCCAUGUGGGAGAAGGUGUCUGUGGCC [Design 99] (Eterna round: R96, puzzle: Exclusion NG 2) | – | – | – | 0.0177 µM | 0.0157 µM | 0.0224 µM |
| AUUCAACAUGAGGAUCACCCAUGUGAGGAUAUGCGAGUAUAGACUUCGGUCUGAUAGAGCAGAAGGCGCAGAUA [EX1 #6] (Eterna round: R97, puzzle: Exclusion 1) | – | – | – | 0.0487 µM | – | 0.0328 µM |
| CGCUAGUCAGGAUAUACGAACAUGUCAAAAGACGUGAAGGGACAUGAGGAUCACCCAUGUAGAAGGGACUAGCA [salish99_ex2_r3_014] (Eterna round: R96, puzzle: Exclusion 2) | – | – | – | 0.165 µM | 0.0222 µM | 0.0315 µM |
| UAAGCAAGCGAAAGAUCCCACAUGAGGAUCACCCAUGUGCUCGUCUUAUAAGGUACUGUGACGAAAGUCACGGUACC [Sensor 3, v1 - 91 v22] (Eterna round: R97, puzzle: Sensor, turn-off variant 1) | – | – | – | 0.14 µM | – | 0.128 µM |
| AGUAACUAUCACGAAAGUGAUAGUUACAACAAGUGAUAAACAUGAGGAUCACCCAUGUCCUCAUUUGCUCGUUUUAU [Sensor 3 - 15] (puzzle: Sensor v3, turn-off variant 2) | 0.328 µM | 0.646 µM | 0.323 µM | – | – | – |
| GGUUGUCGAGGAUAUACUAGGGACCGAUCGAUCGGAACUUCACAUGAGGAUCACCCAUGUAGAAGGCGACAAUC [Eternabot (L1) Solution 57] (Eterna round: R97, puzzle: Exclusion 2) | – | – | – | 0.116 µM | – | 0.174 µM |
| GGUAACAUGAGGAUCACCCAUGUGAUACGUUACAUAUAAACCGAGGAUAUACCCUCAGAACGAGGGUAGAAGGUGGGACGACAC [Eternabot solution 8] (Eterna round: R96, puzzle: Exclusion NG 3) | – | – | – | 0.0958 µM | 0.0516 µM | 0.102 µM |
| GGGUGACAUGAGGAUCACCCAUGUCAGGAUAUGGGCCCGGGCCCGAAAGGGUUUGGGCCCAGAAGGGACUGCCC [-44.5, -43.5 kcal, 22%A (-3 GC series)] (Eterna round: R97, puzzle: Exclusion 1) | – | – | – | 0.145 µM | – | 0.0503 µM |
| UCCUCACAUGAGGAUCACCCAUGUCAGGAUAUAAGAAACGCGGCAGGCAGCCGCAAAAUUAGAAGGGACAUUAA [EX1 A.27] (Eterna round: R97, puzzle: Exclusion 1) | – | – | – | 0.0475 µM | – | 0.0182 µM |
| GAGUCUCGAAAGGAUAUUUAGGUGUAUGCAGGUAGAGAAGGUUCGACAUGAGGAUCACCCAUGUAAUGGUUUCC [Eternabot (L2) Solution 25] (Eterna round: R97, puzzle: Exclusion 6) | – | – | – | 0.157 µM | – | 0.084 µM |
| AAUUAGCAAGCGAGAUCCCACAUGAGGAUCACCCAUGUGCUCGUCUUAUAUAAGGUACUGUACGAGAGUACGGUACC [Mat - Sensor, turn-off var - Eli Mod - D30] (Eterna round: R97, puzzle: Sensor, turn-off variant 1) | – | – | – | 0.0121 µM | – | 0.0106 µM |
| UCAUACGGUGAGGAUAUCUCCACUAAAGUGUGUAGAGAAGGCGCUACAUGAGGAUCACCCAUGUUUAUGGGCAG [Ex-6 Malc#13] (Eterna round: R96, puzzle: Exclusion 6) | – | – | – | – | 0.236 µM | – |
| AAUGAUUGACGAGGAUAUUGUGGUGAAACACGACGAGAAGGCGUAUGUCACAUGAGGAUCACCCAUGUGAACUUUGUGGAUAUA [Ex NG1 #70] (Eterna round: R96, puzzle: Exclusion NG 1) | – | – | – | 0.0304 µM | 0.0333 µM | 0.0388 µM |
| CCGAACAUAGGAUAUACAUGAGGAUCACCCAUGUAUAUAAAAGGGUGUUCCAACUAAAGUAGAAGGAUGUAAGG [ExFusion 1 - Jieux - Exclusion 3] (Eterna round: R97, puzzle: Exclusion 3) | – | – | – | 0.0365 µM | – | 0.0406 µM |
| AAAUACCGGUGAGGAUAUUUAUAAUAGAGCUUUAUGAUAUACAUGAGGAUCACCCAUGUUACUUUAAAGAAGGCAUCGGAAUAA [Mat - Exclusion NG 2 - Mod of JL - D93] (Eterna round: R96, puzzle: Exclusion NG 2) | – | – | – | 0.0154 µM | 0.0139 µM | 0.0189 µM |
| ACAAGCAGAGAGUAAAUGGACAUGAGGAUCACCCAUGUGAGUCCAAGGAGAUAAGAUAUAUUAUUGGCUCGUCUUAU [AK-miRNA-r3-20] (Eterna round: R97, puzzle: Sensor, turn-off variant 1) | – | – | – | 0.0752 µM | – | 0.104 µM |

| Sequence | apparent KD of MS2 coat protein [1] | apparent KD of MS2 coat protein [2] | apparent KD of MS2 coat protein [3] | apparent KD of MS2 coat protein (input ligand: FMN 200 uM) | apparent KD of MS2 coat protein [4] | apparent KD of MS2 coat protein (input ligand: none) |
| --- | --- | --- | --- | --- | --- | --- |
| GAUUAUGCGAGCUUUAGGGACAUGAGGAUCACCCAUGUUCGUCUUAUUGGUCUGAGUGCACUGACAUACCUAAAUCU [JMF 86] (puzzle: Sensor v3, turn-off variant 1) | 0.0194 µM | 0.0309 µM | 0.0199 µM | – | – | – |
| UUAAAUCAUGUAGGAUAUGCGUGGCGAAGCUAUGCAGAAGGACAUGAGGAUCACCCAUGUGCUGCGGUCUGCGUACAGAUCGCU [JL ENG1 1.03] (Eterna round: R96, puzzle: Exclusion NG 1) | – | – | – | 0.0987 µM | 0.0764 µM | 0.142 µM |
| UUUUUACAUGAGGAUCACCCAUGUGAGGAUAUGGUUUCGCUGGCCGUAGCCAGUGGAACCAGAAGGCGCAUGAU [Mat - Exclusion 1 - JL Mod - D8] (Eterna round: R97, puzzle: Exclusion 1) | – | – | – | 0.374 µM | – | 0.0847 µM |
| AGUUCAAGGAAUUCUUCUGACAUGAGGAUCACCCAUGUGCUUUGCAAGUGUUGCUCGUCGCCUAGAACGUUAAGUAA [Eternabot (Original) Solution 32] (Eterna round: R97, puzzle: Sensor, turn-off variant 1) | – | – | – | 0.158 µM | – | 0.225 µM |
| ACAUUACAUGAGGAUCACCCAUGUGAGGAUAUGGUGCGGUAGUGUCCUGUCGCGUACUCCAGAAGGCGCGGGUG [1st #46] (Eterna round: R97, puzzle: Exclusion 1) | – | – | – | 0.174 µM | – | 0.194 µM |
| AAACGGCGGAUCGUGGCUUUUUGCUCGUCUUGUGCUUCAACAUGAGGAUCACCCAUGUAGUGGUGAUCCGUUGUAAA [Grok-var2-17 mod JAL] (puzzle: Sensor v3, turn-off variant 2) | 0.0258 µM | 0.0267 µM | 0.0421 µM | – | – | – |
| CACAAUGACGUCAGGAUAUGUAAACAGCGAAGUUUGUAGAAGGGACAUGAGGAUCACCCAUGUAUAACUGGGAG [Eternabot (L2) Solution 27] (Eterna round: R97, puzzle: Brourd's mod of Exclusion 4) | – | – | – | 0.22 µM | – | 0.149 µM |
| GUGUAGAUAGGAUAUACAUGAGUCUAGCGAAGCUAGAUUCUACAUGAGGAUCACCCAUGUAGAAGGGUCUACAC [Fiskers Ex 2 - 28] (puzzle: Exclusion 2) | – | 0.0143 µM | – | – | – | – |
| UAGCAAUGAGAUGGGUUCCACAUGAGGAUCACCCAUGUCCAAGCUCAGAGCUCGUCUUAUUUGAGAUACUUCACUGU [Eternabot (L2) Solution 50] (Eterna round: R97, puzzle: Sensor, turn-off variant 1) | – | – | – | 0.0411 µM | – | 0.0434 µM |
| GUGUACAGAGGAUAUGCUGGAAUCUAGCGAAGCUAGGUUCCACAUGAGGAUCACCCAUGUAGAAGGCUGUACAC [Dot plot directed A v4] (puzzle: Exclusion 2) | – | 0.0194 µM | – | – | – | – |
| AUUGUAGUUGUGAGGAUAUCGUAGAUUUAUUGAAACGAGAAGGCACAUGAGGAUCACCCAUGUAAGUUGUAGGU [JR_BMOE4_Sub054] (puzzle: Brourd's mod of Exclusion 4) | – | 0.054 µM | – | – | – | – |
| UCCUCACCCAAGGAUAUCUGAGUCGGAACUAGCAGAGAAGGUGGCACAUGAGGAUCACCCAUGUAGACCAAUGC [Eternabot (L2) Solution 9] (Eterna round: R97, puzzle: Exclusion 6) | – | – | – | 0.00787 µM | – | 0.00773 µM |
| UGUUGUUGUUUCCGUUCUUACAUGAGGAUCACCCAUGUUUCUUGUCGUGCUCGCGUUGCUCGUCAGACUACCUGUUG [salish99_TOv1_r3_065] (puzzle: Sensor v3, turn-off variant 1) | 0.0934 µM | – | 0.151 µM | – | – | – |
| AGUAGAUCUACGCUUGCGUGGAUCUGCUAUGCAGGUGUCACAUGAGGAUCACCCAUGUCCUCAUUUGUUCGUCUUAU [JL turnoff v2 99.16] (puzzle: Sensor v3, turn-off variant 2) | 0.0187 µM | 0.0338 µM | 0.0155 µM | – | – | – |
| UUUGAUUAAGUGAGGAUAUACUGUUUGUAUUGAUUGUAGAAGGUACAUGAGGAUCACCCAUGUUUAGUAUUUAU [JR_BME4_Sub037] (puzzle: Brourd's mod of Exclusion 4) | – | 0.0192 µM | – | – | – | – |
| UGUAAGCUAGGAUAUGCUUUGGGAAAGCAUUCCUUCGAUAAACUUGAGGAUCACCCAAGUAGAAGGAGCUUACC [salish99_ex2_r4_008] (Eterna round: R97, puzzle: Exclusion 2) | – | – | – | 0.0127 µM | – | 0.0109 µM |
